Results: publication doi:10.1101/2025.11.05.686565 (bioRxiv, 2025)

Biological target: the molecule itself
Assay: cryo-EM structure

B1: full-length, strep-tagged human Wdr37 (natural protein, UniProt Q9Y2I8 1-494, looked up)
chain: MPTESASCSTARQTKQKRKSHSLSIRRTNSSEQERTGLPRDMLEGQDSKLPSSVRSTLLELFGQIEREFENLYIENLELRREIDTLNERLAAEGQAIDGAELSKGQLKTKASHSTSQLSQKLKTTYKASTSKIVSSFKTTTSRAACQLVKEYIGHRDGIWDVSVAKTQPVVLGTASADHTALLWSIETGKCLVKYAGHVGSVNSIKFHPSEQLALTASGDQTAHIWRYAVQLPTPQPVADTSISGEDEVECSDKDEPDLDGDVSSDCPTIRVPLTSLKSHQGVVIASDWLVGGKQAVTASWDRTANLYDVETSELVHSLTGHDQELTHCCTHPTQRLVVTSSRDTTFRLWDFRDPSIHSVNVFQGHTDTVTSAVFTVGDNVVSGSDDRTVKVWDLKNMRSPIATIRTDSAINRINVCVGQKIIALPHDNRQVRLFDMSGVRLARLPRSSRQGHRRMVCCSAWSEDHPVCNLFTCGFDRQAIGWNINIPALLQEK
stoichiometry N: 2
